Reference: the supplement of paper PMC10567573

B1: KCNA4 (parent)
chain: YQLGEEALLKFREDEGFVREEEDR
B2: CASP6 (parent)
chain: TCADRDNLTRRFSDLGFEVKCFND

Variants of: B1
Assay: protein stability index of a GFP-peptide fusion (GPS, HEK-293T) (PSI 1-6); higher = more stable
Settings: c terminus: a fixed tail appended
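Note: lentivirally expressed fusions sorted by FACS into six bins by GFP to DsRed ratio, PSI derived from sequencing read proportions per bin multiplied by bin number.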

| Variant | protein stability index |
| --- | --- |
| V18L | 4.44 |
| V18G | 4.43 |
| V18W | 3.94 |
| V18R | 4.04 |
| E15K | 4.16 |
| L3I | 5.12 |
| L3W | 3.89 |
| L3D | 5.85 |
| L3V | 5.28 |
| L3F | 4.7 |
| L3G | 4.53 |
| R19A | 4.91 |
| R19N | 4.47 |
| K10A | 4.01 |
| K10M | 3.59 |
| K10R | 4.09 |
| K10P | 5.59 |
| E21N | 4 |
| E21D | 4.4 |
| E21H | 4.18 |
| E21T | 4.38 |
| E20Y | 3.71 |
| E20S | 4.45 |
| E20W | 3.56 |
| G16C | 4.83 |
| G16K | 3.93 |

| Variant | protein stability index |
| --- | --- |
| G16M | 4.48 |
| G16S | 4.75 |
| A7S | 4.52 |
| A7C | 4.89 |
| A7I | 3.99 |
| A7G | 4.64 |
| D14Y | 3.59 |
| R12M | 4.06 |
| R12H | 4.75 |
| D23A | 4.28 |
| D23K | 4.45 |
| D23H | 3.94 |
| D23Y | 4.46 |
| D23I | 3.88 |
| E13G | 3.71 |
| E13S | 3.37 |
| E13F | 3.63 |
| E13T | 4.43 |
| Y1M | 5.47 |
| Y1E | 5.74 |
| Y1A | 5.7 |
| Y1L | 4.96 |
| Y1W | 5.25 |
| Y1S | 5.53 |
| F11H | 5.21 |
| F11N | 5.75 |

| Variant | protein stability index |
| --- | --- |
| F11Y | 5.46 |
| F11W | 4.21 |
| F11M | 4.44 |
| E22R | 3.95 |
| G4N | 4.28 |
| G4R | 4.56 |
| R24T | 4.71 |
| R24W | 4.53 |
| L9P | 5.09 |
| L9N | 4.17 |
| L9E | 5.37 |
| L9A | 4.88 |
| F17Y | 4.86 |
| F17N | 4.68 |
| F17P | 4.9 |
| F17A | 4.78 |
| E5Q | 3.92 |
| E5Y | 3.21 |
| E5M | 3.37 |
| E5V | 3.86 |
| Q2D | 5.62 |
| Q2N | 5.23 |
| E6K | 4 |
| E6Y | 3.04 |
| E6D | 4.67 |

Variants of: B2
Assay: as above
Settings: c terminus: a fixed tail appended

| Variant | protein stability index |
| --- | --- |
| R10Y | 2.65 |
| R10E | 3.83 |
| R10P | 3.39 |
| R10A | 3.59 |
| R10K | 3.75 |
| R10I | 2.48 |
| R10D | 3.96 |
| R10G | 3.48 |
| R10S | 3.29 |
| R10Q | 3.33 |
| R10N | 3.56 |
| R10F | 2.98 |
| R10M | 2.83 |
| R10L | 3.07 |
| R10H | 3.16 |
| R10T | 3.61 |
| R10W | 2.17 |
| R10V | 3.2 |
| R10C | 2.59 |
| A3G | 3.38 |
| A3Y | 2.9 |
| A3Q | 4.01 |
| A3W | 3.21 |

| Variant | protein stability index |
| --- | --- |
| A3L | 3.14 |
| A3P | 4.03 |
| A3T | 3.63 |
| A3H | 2.98 |
| A3M | 3.45 |
| A3C | 2.84 |
| A3R | 2.97 |
| A3N | 3.38 |
| A3I | 3.21 |
| A3F | 2.52 |
| A3S | 3.64 |
| A3D | 3.96 |
| A3E | 3.65 |
| A3K | 3.7 |
| A3V | 3.52 |
| S13W | 2.36 |
| S13Y | 2.7 |
| S13P | 2.86 |
| S13N | 3.44 |
| S13R | 2.98 |
| S13H | 2.88 |
| S13K | 3.45 |
| S13V | 2.32 |

| Variant | protein stability index |
| --- | --- |
| S13M | 2.71 |
| S13E | 3.84 |
| S13C | 2.67 |
| S13T | 2.58 |
| S13D | 3.83 |
| S13A | 3.46 |
| S13L | 2.71 |
| S13G | 3 |
| S13I | 2.75 |
| S13F | 2.7 |
| S13Q | 3.65 |
| F12C | 3.08 |
| F12E | 4.7 |
| F12W | 3.1 |
| F12I | 2.98 |
| F12R | 3.35 |
| F12A | 4.07 |
| F12Q | 3.97 |
| F12M | 3.42 |
| F12Y | 3.45 |
| F12P | 4.32 |
| F12G | 3.81 |
| F12N | 4.35 |

| Variant | protein stability index |
| --- | --- |
| F12V | 4.21 |
| F12D | 4.23 |
| F12K | 4.1 |
| F12H | 4.07 |
| F12T | 3.96 |
| F12S | 4.08 |
| F12L | 3.33 |
| N7S | 3.51 |
| N7A | 2.89 |
| N7T | 3.52 |
| N7Y | 2.72 |
| N7G | 3.71 |
| N7Q | 2.92 |
| N7P | 3.4 |
| N7F | 2.78 |
| N7I | 3.22 |
| N7H | 3.63 |
| N7K | 3.06 |
| N7E | 3.55 |
| N7M | 3.35 |
| N7L | 2.98 |
